B1: unnamed (protein)
chain: MAKKDEHLRKPEWLKIKLNTNENYTGLKKLMRENNLHTVCEEAKCPNIHECWAVRRTATFMILGSVCTRACRFCAVKTGLPTELDLQEPERVADSVALMNLKHAVITAVARDDQKDGGAGIFAETVRAIRRKSPFTTIEVLPSDMGGNYDNLKTLMDTRPDILNHNIETVRRLTPRVRARATYDRSLEFLRRAKEMQPDIPTKSSIMIGLGETKEEIIEVMDDLLANNVDIMAIGQYLQPTKKHLKVQKYYHPDEFAELKEIAMQKGFSHCEAGPLVRSSYHADEQVNEASKKRQAQA
B2: unnamed (protein)
chain: MRSSLVLFFVSAWTALASPIRREVSQDLFNQFNLFAQYSAAAYCGKNNDAPAGTNITCTGNACPEVEKADATFLYSFEDSGVGDVTGFLALDNTNKLIVLSFRGSRSIENWIGNLNFDLKEINDICSGCRGHDGFTSSWRSVADTLRQKVEDAVREHPDYRVVFTGHSLGGALATVAGADLRGNGYDIDVFSYGAPRVGNRAFAEFLTVQTGGTLYRITHTNDIVPRLPPREFGYSHSSPEYWIKSGTLVPVTRNDIVKIEGIDATGGNNQPNIPDIPAHLWYFGLIGTCL
B3: unnamed (protein)
chain: MTEPTVARPDIDPVLKMLLDTFPVTFTAADGVEVARARLRQLKTPPELLPELRIEERTVGYDGLTDIPVRVYWPPVVRDNLPVVVYYHGGGWSLGGLDTHDPVARAHAVGAQAIVVSVDYRLAPEHPYPAGIDDSWAALRWVGENAAELGGDPSRIAVAGDSAGGNISAVMAQLARDVGGPPLVFQLLWYPTTMADLSLPSFTENADAPILDRDVIDAFLAWYVPGLDISDHTMLPTTLAPGNADLSGLPPAFIGTAEHDPLRDDGACYAELLTAAGVSVELSNEPTMVHGYVNFALVVPAAAEATGRGLAALKRALHA
B4: unnamed (protein)
chain: MVLKQRANYLGFLIVFFTAFLVEAVPIKRQSNSTVDSLPPLIPSRTSAPSSSPSTTDPEAPAMSRNGPLPSDVETKYGMALNATSYPDSVVQAMSIDGGIRAATSQEINELTYYTTLSANSYCRTVIPGATWDCIHCDATEDLKIIKTWSTLIYDTNAMVARGDSEKTIYIVFRGSSSIRNWIADLTFVPVSYPPVSGTKVHKGFLDSYGEVQNELVATVLDQFKQYPSYKVAVTGHSLGGATALLCALDLYQREEGLSSSNLFLYTQGQPRVGDPAFANYVVSTGIPYRRTVNERDIVPHLPPAAFGFLHAGEEYWITDNSPETVQVCTSDLETSDCSNSIVPFTSVLDHLSYFGINTGLCT
B5: unnamed (protein)
chain: AEVCYSHLGCFSDEKPWAGTSQRPIKSLPSDPKKINTRFLLYTNENQNSYQLITATDIATIKASNFNLNRKTRFIIHGFTDSGENSWLSDMCKNMFQVEKVNCICVDWKGGSKAQYSQASQNIRVVGAEVAYLVQVLSTSLNYAPENVHIIGHSLGAHTAGEAGKRLNGLVGRITGLDPAEPYFQDTPEEVRLDPSDAKFVDVIHTDISPILPSLGFGMSQKVGHMDFFPNGGKDMPGCKTGISCNHHRSIEYYHSSILNPEGFLGYPCASYDEFQESGCFPCPAKGCPKMGHFADQYPGKTNAVEQTFFLNTGASDNFTRWRYKVTVTLSGEKDPSGNINVALLGKNGNSAQYQVFKGTLKPDASYTNSIDVELNVGTIQKVTFLWKRSGISVSKPKMGASRITVQSGKDGTKYNFCSSDIVQENVEQTLSPC
B6: unnamed (protein)
chain: MEPGSKSVSRSDWQPEPHQRPITPLEPGPEKTPIAQPESKTLQGSNTQQKPASNQRPLTQQETPAQHDAESQKEPRAQQKSASQEEFLAPQKPAPQQSPYIQRVLLTQQEAASQQGPGLGKESITQQEPALRQRHVAQPGPGPGEPPPAQQEAESTPAAQAKPGAKREPSAPTESTSQETPEQSDKQTTPVQGAKSKQGSLTELGFLTKLQELSIQRSALEWKALSEWVTDSESESDVGSSSDTDSPATMGGMVAQGVKLGFKGKSGYKVMSGYSGTSPHEKTSARNHRHYQDTASRLIHNMDLRTMTQSLVTLAEDNIAFFSSQGPGETAQRLSGVFAGVREQALGLEPALGRLLGVAHLFDLDPETPANGYRSLVHTARCCLAHLLHKSRYVASNRRSIFFRTSHNLAELEAYLAALTQLRALVYYAQRLLVTNRPGVLFFEGDEGLTADFLREYVTLHKGCFYGRCLGFQFTPAIRPFLQTISIGLVSFGEHYKRNETGLSVAASSLFTSGRFAIDPELRGAEFERITQNLDVHFWKAFWNITEMEVLSSLANMASATVRVSRLLSLPPEAFEMPLTADPTLTVTISPPLAHTGPGPVLVRLISYDLREGQDSEELSSLIKSNGQRSLELWPRPQQAPRSRSLIVHFHGGGFVAQTSRSHEPYLKSWAQELGAPIISIDYSLAPEAPFPRALEECFFAYCWAIKHCALLGSTGERICLAGDSAGGNLCFTVALRAAAYGVRVPDGIMAAYPATMLQPAASPSRLLSLMDPLLPLSVLSKCVSAYAGAKTEDHSNSDQKALGMMGLVRRDTALLLRDFRLGASSWLNSFLELSGRKSQKMSEPIAEPMRRSVSEAALAQPQGPLGTDSLKNLTLRDLSLRGNSETSSDTPEMSLSAETLSPSTPSDVNFLLPPEDAGEEAEAKNELSPMDRGLGVRAAFPEGFHPRRSSQGATQMPLYSSPIVKNPFMSPLLAPDSMLKSLPPVHIVACALDPMLDDSVMLARRLRNLGQPVTLRVVEDLPHGFLTLAALCRETRQAAELCVERIRLVLTPPAGAGPSGETGAAGVDGGCGGRH

Substrate in the first data set: p-NP-C4
As to conditions: pH 7; 25 °C.
In the case of B1, the Km came out at 0.75 mM, the kcat stood at 50 s⁻¹ and the specificity constant (kcat/Km) was found to be 66700 M⁻¹ s⁻¹.

As to B2, the Michaelis constant (Km) worked out at 2.5 mM, the catalytic constant (kcat) is 580 s⁻¹ and the kcat/Km is 232000 M⁻¹ s⁻¹.

Regarding B3, the Michaelis-Menten constant (Km) was found to be 0.05 mM, the catalytic constant (kcat) worked out at 185 s⁻¹ and the kcat/Km came to 3.7e+06 M⁻¹ s⁻¹.

Turning to B4, the Km is 2.1 mM, the catalytic constant (kcat) was 420 s⁻¹ and the kcat/Km came to 200000 M⁻¹ s⁻¹.

B5: the Km was found to be 1 mM, the kcat was 50 s⁻¹ and the specificity constant (kcat/Km) stood at 50000 M⁻¹ s⁻¹.

Turning to B6, the Km came out at 1 mM, the kcat was 190 s⁻¹ and the kcat/Km is 190000 M⁻¹ s⁻¹.

Substrate in the next data set: triacetin
The settings on record: pH 7; 25 °C.
Consider B1, for which the Michaelis-Menten constant (Km) worked out at 110 mM, the kcat is 120 s⁻¹ and the kcat/Km was 1090 M⁻¹ s⁻¹.

As for B4, the Michaelis-Menten constant (Km) is 210 mM, the catalytic constant (kcat) worked out at 10 s⁻¹ and the kcat/Km was 47.6 M⁻¹ s⁻¹.

As for B5, the Km stood at 120 mM, the kcat amounted to 555 s⁻¹ and the specificity constant (kcat/Km) was 4630 M⁻¹ s⁻¹.

Substrate in the next data set: tributyrin
The settings on record: pH 7; 25 °C.
For B1, the Km stood at 0.4 mM, the kcat came out at 100 s⁻¹ and the specificity constant (kcat/Km) came out at 250000 M⁻¹ s⁻¹.

With B2, the Km came out at 0.5 mM, the kcat came out at 2250 s⁻¹ and the specificity constant (kcat/Km) was found to be 4.5e+06 M⁻¹ s⁻¹.

For the protein B4, the Km is 0.45 mM, the kcat came out at 1080 s⁻¹ and the specificity constant (kcat/Km) stood at 2.4e+06 M⁻¹ s⁻¹.

With B5, the Km was 0.45 mM, the kcat was 1500 s⁻¹ and the specificity constant (kcat/Km) was 3.33e+06 M⁻¹ s⁻¹.

As to B6, the Km was 0.4 mM, the kcat came out at 18 s⁻¹ and the catalytic efficiency (kcat/Km) stood at 45000 M⁻¹ s⁻¹.

Substrate in a further data set: tripropionin
The settings on record: pH 7; 25 °C.
Take B1: the Km was 12 mM, the kcat turned out to be 150 s⁻¹ and the kcat/Km amounted to 12500 M⁻¹ s⁻¹.

As to B2, the Km is 14 mM, the turnover number (kcat) turned out to be 225 s⁻¹ and the kcat/Km amounted to 16100 M⁻¹ s⁻¹.

In the case of B4, the Km was determined as 18 mM, the kcat came out at 200 s⁻¹ and the kcat/Km amounted to 11100 M⁻¹ s⁻¹.

As to B5, the Km is 10.5 mM, the catalytic constant (kcat) worked out at 750 s⁻¹ and the kcat/Km worked out at 71400 M⁻¹ s⁻¹.

For B6, the Km was 15 mM, the kcat stood at 7 s⁻¹ and the kcat/Km amounted to 467 M⁻¹ s⁻¹.

Substrate in the next data set: vinyl acetate
As to conditions: pH 7; 25 °C.
For the protein B1, the Michaelis-Menten constant (Km) was determined as 280 mM, the kcat was 100 s⁻¹ and the specificity constant (kcat/Km) is 357 M⁻¹ s⁻¹.

As to B2, the Km came out at 280 mM, the kcat stood at 455 s⁻¹ and the kcat/Km is 1630 M⁻¹ s⁻¹.

For the protein B4, the Michaelis-Menten constant (Km) turned out to be 120 mM, the turnover number (kcat) was found to be 950 s⁻¹ and the kcat/Km was found to be 7920 M⁻¹ s⁻¹.

Turning to B5, the Michaelis-Menten constant (Km) is 295 mM, the kcat stood at 70 s⁻¹ and the kcat/Km is 237 M⁻¹ s⁻¹.

As for B6, the Km is 170 mM, the kcat came to 140 s⁻¹ and the kcat/Km is 824 M⁻¹ s⁻¹.

Substrate in another data set: vinyl butyrate
As to conditions: pH 7; 25 °C.
B1: the Michaelis-Menten constant (Km) amounted to 40 mM, the kcat amounted to 635 s⁻¹ and the kcat/Km turned out to be 15900 M⁻¹ s⁻¹.

Consider B2, for which the Km came out at 20 mM, the kcat is 2600 s⁻¹ and the specificity constant (kcat/Km) turned out to be 130000 M⁻¹ s⁻¹.

B4: the Km was 15 mM, the turnover number (kcat) was found to be 5390 s⁻¹ and the kcat/Km was determined as 359000 M⁻¹ s⁻¹.

Consider B5, for which the Michaelis constant (Km) is 20 mM, the kcat turned out to be 200 s⁻¹ and the kcat/Km came out at 10000 M⁻¹ s⁻¹.

As for B6, the Michaelis-Menten constant (Km) came out at 11 mM, the kcat was found to be 210 s⁻¹ and the kcat/Km came out at 19100 M⁻¹ s⁻¹.

Substrate in the next data set: vinyl laurate
The settings on record: pH 7; 25 °C.
For the protein B1, the Michaelis constant (Km) amounted to 5 mM, the kcat was 145 s⁻¹ and the kcat/Km turned out to be 29000 M⁻¹ s⁻¹.

For the protein B2, the Michaelis constant (Km) amounted to 4 mM, the catalytic constant (kcat) came to 12000 s⁻¹ and the kcat/Km is 3e+06 M⁻¹ s⁻¹.

Regarding B4, the Km came to 2 mM, the kcat was determined as 5400 s⁻¹ and the specificity constant (kcat/Km) amounted to 2.7e+06 M⁻¹ s⁻¹.

As for B5, the Km is 1.25 mM, the kcat is 125 s⁻¹ and the specificity constant (kcat/Km) turned out to be 100000 M⁻¹ s⁻¹.

As to B6, the Km stood at 3 mM, the kcat stood at 31 s⁻¹ and the kcat/Km is 10300 M⁻¹ s⁻¹.

Substrate in a further data set: vinyl propionate
As to conditions: pH 7; 25 °C.
Regarding B1, the Km was determined as 75 mM, the turnover number (kcat) turned out to be 1940 s⁻¹ and the kcat/Km is 25800 M⁻¹ s⁻¹.

On to B2, for which the Michaelis-Menten constant (Km) was 100 mM, the turnover number (kcat) came out at 1950 s⁻¹ and the kcat/Km is 19500 M⁻¹ s⁻¹.

As to B4, the Km stood at 35 mM, the kcat turned out to be 3680 s⁻¹ and the kcat/Km was 105000 M⁻¹ s⁻¹.

For B5, the Km worked out at 50 mM, the catalytic constant (kcat) was 270 s⁻¹ and the catalytic efficiency (kcat/Km) worked out at 5400 M⁻¹ s⁻¹.

B6: the Km was determined as 70 mM, the turnover number (kcat) was 105 s⁻¹ and the kcat/Km was determined as 1500 M⁻¹ s⁻¹.
